Assay results published in the Immune Epitope Database (IEDB).

What was measured:
HLA-B*18:01 = assay: IEDB peptide-MHC binding, purified MHC/direct/fluorescence; filed as Kd, often an IC50 or EC50 that approximates it; ≥ and ≤ were set here for values at or beyond the usual limits of such assays
HLA-B*40:01 = assay: as above; settings: source organism: Influenza A virus (A/WSN/1933(H1N1))
HLA-B*44:02 = assay: as above; settings: source organism: Influenza A virus (A/WSN/1933(H1N1))
HLA-B*35:01 = assay: IEDB peptide-MHC binding, purified MHC/competitive/radioactivity; filed as Kd, often an IC50 or EC50 that approximates it; ≥ and ≤ were set here for values at or beyond the usual limits of such assays
HLA-B*51:01 = assay: as above
HLA-B*15:01 = assay: as above
HLA-B*53:01 = assay: as above
HLA-A*24:02 = assay: as above
HLA-A*32:01 = assay: as above; settings: source organism: Dengue virus 2 Jamaica/1409/1983
HLA-B*57:01 = assay: IEDB peptide-MHC binding, purified MHC/direct/fluorescence; filed as Kd, often an IC50 or EC50 that approximates it; ≥ and ≤ were set here for values at or beyond the usual limits of such assays; settings: source organism: Vibrio alginolyticus 12G01
HLA-B*58:01 = assay: as above; settings: source organism: Vibrio alginolyticus 12G01
HLA-A*26:01 = assay: IEDB peptide-MHC binding, purified MHC/competitive/radioactivity; filed as Kd, often an IC50 or EC50 that approximates it; ≥ and ≤ were set here for values at or beyond the usual limits of such assays
HLA-A*30:02 = assay: as above
HLA-A*01:01 = assay: as above
HLA-A*23:01 = assay: as above; settings: source organism: SARS coronavirus Tor2
HLA-A*29:02 = assay: as above; settings: source organism: SARS coronavirus Tor2
[1] = source organism: Dengue virus 2 Jamaica/1409/1983
[2] = source organism: Dengue virus 4 Dominica/814669/1981
[3] = source organism: Dengue virus 4 Philippines/H241/1956
[4] = source organism: Dengue virus 3 Singapore/8120/1995
[5] = source organism: SARS coronavirus Tor2
[6] = source organism: Dengue virus 3 Martinique/1243/1999
[7] = source organism: Dengue virus 1 Brazil/97-11/1997

AESRKLLLI
Kd (HLA-B*18:01; source organism: Influenza A virus (A/WSN/1933(H1N1))): ≥ 20000 nM | Kd (HLA-B*40:01): 158 nM | Kd (HLA-B*44:02): ≥ 53000 nM

TAVAPSMTM
Kd (HLA-B*35:01; [1]): 15.7 nM

LPLPWTAGA
Kd (HLA-B*51:01; [2]): 2830 nM

VFIWFIFHF
Kd (HLA-B*15:01; source organism: Vaccinia virus): 642 nM

PVSDLKYSW
Kd (HLA-B*53:01; [2]): 1690 nM

DPFPQSNSPI
Kd (HLA-B*51:01; [3]): 733 nM

QEKWMTGRM
Kd (HLA-B*18:01; source organism: Yellow fever virus): 3050 nM

LYAVATTIL
Kd (HLA-A*24:02; [3]): 79.5 nM

RQMEGEGIF
Kd (HLA-A*32:01): 140 nM | Kd (HLA-B*15:01; [1]): 5.85 nM

VSEPELCLL
Kd (HLA-B*57:01): ≥ 20000 nM | Kd (HLA-B*58:01): ≥ 20000 nM

EMCEDTVTY
Kd (HLA-A*26:01; [3]): 3900 nM | Kd (HLA-A*30:02; [3]): 14300 nM | Kd (HLA-B*15:01; [3]): 28.3 nM | Kd (HLA-B*35:01; [3]): 681 nM

HMIAGVLFTF
Kd (HLA-A*24:02; [4]): 431 nM | Kd (HLA-A*26:01; [4]): 1160 nM | Kd (HLA-B*15:01; [4]): 2.03 nM

LYIIKLVFL
Kd (HLA-A*01:01; [5]): 2150 nM | Kd (HLA-A*23:01): 0.179 nM | Kd (HLA-A*24:02; [5]): 0.268 nM | Kd (HLA-A*26:01; [5]): ≥ 21000 nM | Kd (HLA-A*29:02): 3110 nM | Kd (HLA-A*30:02; [5]): 13500 nM

ILKKLSPYF
Kd (HLA-B*15:01; source organism: Vaccinia virus WR): 1.18 nM

ILGAQALPVY
Kd (HLA-A*01:01; [3]): ≥ 70400 nM | Kd (HLA-A*30:02; [3]): 80.8 nM | Kd (HLA-B*15:01; [3]): 4.87 nM

EPGVVSPTSY
Kd (HLA-B*35:01; [6]): 592 nM | Kd (HLA-B*53:01; [6]): 313 nM

LPTALAFHL
Kd (HLA-B*51:01; [7]): 1410 nM | Kd (HLA-B*53:01; [7]): 2.16 nM

LKEPCPSGTY
Kd (HLA-A*01:01; [5]): 14100 nM | Kd (HLA-A*23:01): ≥ 70000 nM | Kd (HLA-A*24:02; [5]): ≥ 70300 nM | Kd (HLA-A*26:01; [5]): 5440 nM | Kd (HLA-A*29:02): 1560 nM | Kd (HLA-A*30:02; [5]): 69.8 nM

AFLPFTLGI
Kd (HLA-A*01:01; [5]): ≥ 78100 nM | Kd (HLA-A*23:01): ≥ 45800 nM | Kd (HLA-A*24:02; [5]): ≥ 81800 nM | Kd (HLA-A*26:01; [5]): ≥ 77900 nM | Kd (HLA-A*29:02): 529 nM | Kd (HLA-A*30:02; [5]): 8040 nM
